Consider one molecule from patent publication US20250152743A1, “SYNPOPTOSIS CIRCUITS FOR PROGRAMMABLE CELL DEATH CONTROL” (California Institute of Technology, priority 2023, published 2025).

Common to all, as to type: cell-based, human
In one test the test system is HEK cells. Description: Transient DNA transfection of HEK cells, Annexin/Sytox staining, flow cytometry. Background: In flow cytometry, cells or beads pass a laser one at a time.
In test [1] the test system is HEK293FT cells. Description: Co-transfection time course, cell death every 24 h over 4 days. The conditions noted are these: P3/P4-zipper reconstituted TEVP. The method, then:
Moreover, it was evaluated if some of these mutations affect the maximal caspase activation accessible and the time dependency between caspase activation and cell death by co-transfecting (i) input proteases (P3/P4-zipper reconstituted TEVP as a positive control, split TEVP without reconstitution domain as a negative control, or NeoR to evaluate caspase baseline activity; all with IRES-BFP to enable expression tracking) and (ii) output caspase (“ENLYFQS” (SEQ ID NO: 2)/“ENLYFQQ” (SEQ ID NO: 4)/“ENLFFQQ” (SEQ ID NO: 7)+co-transfected GFP for expression tracking) in HEK293FT cells and measuring cell death every 24 h over the course of 4 days.

The subject of test [2] is HEK293FT cells. Description: Polytransfection of input proteases and caspase cleavage-site variants, Annexin staining. From the text:
The cleavage efficiency of proteases is known to depend on corresponding accessible cleavage sites. Mutations to native protease cleavage sites can slow (i) the recruitment of substrates to the protease active site, (ii) catalytic reaction steps, or (iii) the release of the substrate from the protease. As described herein, this property to modulate cell death executioner activation thresholds. Specifically, we surveyed the following constructs with modified protease cleavage sites across a wide range of possible cell death executioner and input protease expression regimes: […]
To evaluate how the mutated protease cleavage sites affect Caspase 3 activation, we polytransfected (i) input proteases (P3/P4-zipper reconstituted TEVP as a positive control, split TEVP without reconstitution domain as a negative control, or NeoR to evaluate caspase baseline activity; all with IRES-BFP to enable expression tracking) and (ii) output caspase (caspase+co-transfected GFP for expression tracking) in HEK293FT cells. Annexin staining as described above in Example 1 was used to quantify cell death.

B1: TEVP-activatable caspase-3: caspase-3 whose cleavage site between large and small subunits was replaced by a TEVP cleavage site; SEQ ID NO: 10 (protein)
chain: MGSENTENSVDSKSIKNLEPKIIHGSESMDSGISLDNSYKMDYPEMGLCIIINNKNFHKSTGMTSRSGTDVDAANLRETFRNLKYEVRNKNDLTREEIVELMRDVSKEDHSKRSSFVCVLLSHGEEGIIFGTNGPVDLKKITNFFRGDRCRSLTGKPKLFIIQACRGTELDCGIETENLYFQSGVDDDMACHKIPVEADFLYAYSTAPGYYSWRNSKDGSWFIQSLCAMLKQYADKLEFMHILTRVNRKVATEFESFSFDATFHAKKQIPCIVSMLTKELYFYH
For the molecule B1, the Sytox uptake entry with HEK cells (co-transfected with TEVP) is reported as “only modestly took up Sytox”. The “cell death without the activating TEVP” value with HEK cells (expressed at high levels indicated by co-transfected Cherry) is reported as “induced noticeable cell death even without the activating TEVP”. Further, the “cell death / apoptosis, Annexin staining” value in the test on HEK cells (with TEVP, flow cytometry 16 to 24 hours after DNA transfection) is “ability of the modified caspase-3 to kill HEK cells when co-transfected with TEVP was verified”. Further, in the test with HEK293FT cells [1], the “maximal caspase activation / maximal fraction of dead cells” value is on record as “comparable maximal fraction of dead cells”. Besides, the “activation at high caspase expression with non-reconstituted split protease” value in the test on HEK293FT cells [2] is “leaky activation”. Moreover, the “input/output expression required for caspase activation (activation threshold)” value with HEK293FT cells [2] (order, decreasing: ENLFFQQ, ENLFFQY, ENLYFQS+TEVP-cleavable DHFR, ENLFFQS~ENLYFQY~ENLYFQQ, ENLYFQS, both TEVP and TVMVP cleavage site) was “in decreasing order”.
